Test results published in article PMC12908443 (Nature metabolism, 2021).

How the values were obtained:
[1] = target: T1, Recombinant 6 × His-tagged Acs2 (Acs2–His6) (budding yeast (S. cerevisiae), UniProt P52910 1-683); test: pull-down
T1 sequence (looked up): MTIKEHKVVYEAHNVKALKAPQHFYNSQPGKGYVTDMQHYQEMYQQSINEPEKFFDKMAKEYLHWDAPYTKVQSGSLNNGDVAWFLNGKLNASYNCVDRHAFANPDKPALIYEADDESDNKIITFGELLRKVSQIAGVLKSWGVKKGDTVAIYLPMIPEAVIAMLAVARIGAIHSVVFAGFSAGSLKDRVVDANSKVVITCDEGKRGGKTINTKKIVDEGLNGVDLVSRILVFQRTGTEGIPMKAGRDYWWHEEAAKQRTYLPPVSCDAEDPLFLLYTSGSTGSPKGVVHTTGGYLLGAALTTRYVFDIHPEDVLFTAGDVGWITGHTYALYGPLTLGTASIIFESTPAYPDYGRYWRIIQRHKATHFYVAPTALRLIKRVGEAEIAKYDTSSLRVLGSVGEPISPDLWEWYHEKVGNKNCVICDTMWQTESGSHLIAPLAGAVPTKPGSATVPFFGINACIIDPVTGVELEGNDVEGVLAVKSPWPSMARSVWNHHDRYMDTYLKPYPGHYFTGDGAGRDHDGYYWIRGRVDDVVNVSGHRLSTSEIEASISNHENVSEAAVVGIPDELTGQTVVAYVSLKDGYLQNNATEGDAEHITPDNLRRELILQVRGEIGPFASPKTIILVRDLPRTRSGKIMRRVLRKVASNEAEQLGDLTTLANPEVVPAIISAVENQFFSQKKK

[2] = target: T2, Glutathione S-transferase (GST)–Acs2 (budding yeast (S. cerevisiae), UniProt P52910 1-683); test: pull-down
T2 sequence (looked up): T1 sequence (looked up)

B1: Recombinant CL7-tagged Sas2 (Sas2–CL7) (enzyme, budding yeast (S. cerevisiae), UniProt P40963 1-338, looked up)
chain: MARSLSQSLTATTQKLKGKKNGGKGKNKPSAKIKKTQKEMLYGILNERNIRQIQFGLNKKFSTWYGSAVYFDPETKRLGCSETKGQLSSVSNSQYWLDTLFVCEYCFKYTDDQTRFVGHVASCPFQYRVPGKIKYKSPEYTIRRVKGSKYQLFCQCLCLFTKLYLDNKSMYFKVDHYEFYIVYETGSTKPMGFFSKDLVSYQQNNLACILIFPPYQRRGLGLLLIEFSYKLSQLEGVISGPEVPLSPFGLIGYLKYWSQILCWHLIEGDLAHYDKVTLEDLSIVTGMRVNDVILTLKHLNCIGENNQIYLQSLNSWLKLHGTKRNWFKLKDEYLLIDD
binding result [1]: binds

B2: Purified recombinant Sas2 (Sas2–His6) (enzyme, budding yeast (S. cerevisiae), UniProt P40963 1-338, looked up)
chain: B1 chain
binding result [2]: binds
